For assay [1], the target named is T1, His-tagged human GTP cyclohydrolase 1 (human, UniProt P30793 1-250).
T1 sequence (looked up): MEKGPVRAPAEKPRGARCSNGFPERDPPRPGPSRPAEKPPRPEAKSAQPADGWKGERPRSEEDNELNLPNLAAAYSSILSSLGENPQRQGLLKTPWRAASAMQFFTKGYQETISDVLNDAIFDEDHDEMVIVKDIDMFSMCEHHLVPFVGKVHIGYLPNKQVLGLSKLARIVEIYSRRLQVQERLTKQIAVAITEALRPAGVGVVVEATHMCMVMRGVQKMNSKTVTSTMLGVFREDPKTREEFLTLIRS
Briefly: FRET or BRET.

Assay [2] has as its target T1, His-tagged human GTP cyclohydrolase 1. Briefly: FRET or BRET. This is another data set of the same source. A general note: In BRET a luciferase serves as donor, and the signal depends on an acceptor being close.

Where two headings read alike, the source gives them in different places.

B1: glutathione S-transferase (GST)-tagged human GTP cyclohydrolase feedback regulatory protein (natural protein)
chain: not shown
As usually defined, the Kd is the constant that tells how readily two partners part at equilibrium. A low value points to tighter binding. For the molecule B1, the Kd in assay [1] was determined as 52.1 nM; in assay [2] it was 15.9 nM.

The values are drawn from publication PMC4677475 (Journal of biomolecular screening, 2011).
